Residue numbers refer to the chain shown, from its start. Names and notes keep the numbering of the source.
B1: PP2A regulatory subunit B56δ (natural protein)
chain: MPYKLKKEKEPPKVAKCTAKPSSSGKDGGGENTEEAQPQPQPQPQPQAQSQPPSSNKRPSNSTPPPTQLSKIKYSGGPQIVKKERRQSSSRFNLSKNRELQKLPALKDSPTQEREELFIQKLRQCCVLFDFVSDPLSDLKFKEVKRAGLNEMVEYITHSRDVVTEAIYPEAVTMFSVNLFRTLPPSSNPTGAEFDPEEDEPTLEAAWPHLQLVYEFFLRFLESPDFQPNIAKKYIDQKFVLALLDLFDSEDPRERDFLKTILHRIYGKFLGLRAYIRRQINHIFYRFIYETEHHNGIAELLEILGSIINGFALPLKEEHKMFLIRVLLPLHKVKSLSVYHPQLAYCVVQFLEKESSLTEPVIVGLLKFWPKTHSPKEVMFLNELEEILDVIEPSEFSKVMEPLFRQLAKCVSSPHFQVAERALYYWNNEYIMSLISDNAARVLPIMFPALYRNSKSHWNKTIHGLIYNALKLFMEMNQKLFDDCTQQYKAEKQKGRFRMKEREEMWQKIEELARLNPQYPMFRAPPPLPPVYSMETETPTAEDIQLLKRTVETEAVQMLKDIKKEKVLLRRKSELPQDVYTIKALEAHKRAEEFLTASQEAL
modifications: NT-647-NHS fluorescent dye (Monolith NT Protein labeling kit red NHS)
B2: PP2A regulatory subunit B56ε (natural protein)
chain: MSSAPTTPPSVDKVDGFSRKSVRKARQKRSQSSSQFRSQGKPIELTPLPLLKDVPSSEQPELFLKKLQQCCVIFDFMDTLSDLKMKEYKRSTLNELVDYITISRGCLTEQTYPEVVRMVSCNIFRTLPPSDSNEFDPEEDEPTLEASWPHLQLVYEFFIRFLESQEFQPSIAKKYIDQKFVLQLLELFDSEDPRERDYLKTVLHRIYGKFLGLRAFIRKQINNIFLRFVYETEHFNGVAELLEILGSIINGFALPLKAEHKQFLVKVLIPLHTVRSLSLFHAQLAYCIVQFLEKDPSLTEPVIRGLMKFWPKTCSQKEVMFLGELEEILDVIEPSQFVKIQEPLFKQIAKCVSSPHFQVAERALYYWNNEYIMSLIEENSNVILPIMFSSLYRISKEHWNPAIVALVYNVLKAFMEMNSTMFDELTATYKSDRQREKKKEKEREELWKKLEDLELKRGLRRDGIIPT
modifications: NT-647-NHS fluorescent dye (Monolith NT Protein labeling kit red NHS)
B3: cAMP-regulated phosphoprotein 19 (ARPP-19), wild type (natural protein)
chain: MSAEVPEAASAEEQKEMEDKVTSPEKAEEAKLKARYPHLGQKPGGSDFLRKRLQKGQKYFDSGDYNMAKAKMKNKQLPTAAPDKTEVTGDHIPTPQDLPQRKPSLVASKLAG
modifications: 15N-labelled in the NMR titration
B4: ARPP-19 S104E phosphomimicking mutant (natural protein)
chain: B3 chain with S104E
B5: ARPP-19 S62E phosphomimicking mutant (natural protein)
chain: B3 chain with S62E

Legend:
Test in all cases: MST; NT-647-NHS-labelled PP2A subunit at 20 nM as target, 12-point twofold dilution series of unlabelled ARPP as ligand; SEC buffer with 0.05% Tween-20; triplicate; single-site binding model
Conditions in all cases: both partners purified
[1] = target: T1, ARPP-16 S88E phosphomimicking mutant (human)
T1 construct: one residue left at the N-terminus after TEV cleavage; human ARPP-16, UniProt P56211-2, with S88E; numbers count on: ARPP-16 (P56211-2); source: E. coli BL21 Gold, purified (glutathione agarose, TEV cleavage, SEC); not shown: GST, N-terminal, cleaved
T1 sequence (Q14738 whole entry S88E): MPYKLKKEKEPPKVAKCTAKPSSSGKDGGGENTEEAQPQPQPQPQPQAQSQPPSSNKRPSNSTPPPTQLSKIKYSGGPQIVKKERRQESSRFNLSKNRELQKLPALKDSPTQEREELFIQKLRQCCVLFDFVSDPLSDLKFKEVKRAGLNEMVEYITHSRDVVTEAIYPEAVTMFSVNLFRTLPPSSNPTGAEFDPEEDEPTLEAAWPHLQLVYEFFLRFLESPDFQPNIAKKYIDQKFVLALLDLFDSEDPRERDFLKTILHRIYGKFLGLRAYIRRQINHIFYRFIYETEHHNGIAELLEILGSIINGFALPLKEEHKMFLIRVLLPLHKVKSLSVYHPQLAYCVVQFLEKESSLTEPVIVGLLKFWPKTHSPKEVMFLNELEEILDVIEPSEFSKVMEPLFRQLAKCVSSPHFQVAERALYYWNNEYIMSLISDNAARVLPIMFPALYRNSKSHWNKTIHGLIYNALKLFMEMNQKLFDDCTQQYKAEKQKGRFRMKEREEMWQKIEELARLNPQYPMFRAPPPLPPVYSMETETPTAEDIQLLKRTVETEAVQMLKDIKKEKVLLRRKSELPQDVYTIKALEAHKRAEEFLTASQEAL

[2] = target: T2, ARPP-16 (splice variant of ARPP-19), wild type (human, 15N-labelled in the NMR titration)
T2 construct: one residue left at the N-terminus after TEV cleavage; human ARPP-16, splice variant of ARPP-19 lacking its first 16 residues, UniProt P56211-2; numbers count on: ARPP-16 (P56211-2); pGTvL1-SGC vector; also called ARPP-16 WT; source: E. coli BL21 Gold, purified (glutathione agarose, TEV cleavage, SEC); not shown: GST, N-terminal, cleaved

[3] = target: T3, ARPP-16 S46E phosphomimicking mutant (human)
T3 construct: one residue left at the N-terminus after TEV cleavage; human ARPP-16, UniProt P56211-2, with S46E; numbers count on: ARPP-16 (P56211-2); source: E. coli BL21 Gold, purified (glutathione agarose, TEV cleavage, SEC); not shown: GST, N-terminal, cleaved

[4] = target: B2
[5] = target: PP2A regulatory subunit B56α (NT-647-NHS fluorescent dye (Monolith NT Protein labeling kit red NHS))
[6] = target: T4, PP2A scaffolding subunit PR65α, full length (UniProt P30153 1-589, NT-647-NHS fluorescent dye (Monolith NT Protein labeling kit red NHS) in the MST; unlabelled in the NMR titration)
T4 construct: PP2A scaffolding subunit PR65α, full length; pGTvL1-SGC vector, expressed and purified as the ARPP proteins; also called PP2A A-subunit; A-subunit; source: E. coli BL21 Gold, purified (glutathione agarose, TEV cleavage, SEC); not shown: GST, N-terminal, cleaved
T4 sequence (P30153 whole entry): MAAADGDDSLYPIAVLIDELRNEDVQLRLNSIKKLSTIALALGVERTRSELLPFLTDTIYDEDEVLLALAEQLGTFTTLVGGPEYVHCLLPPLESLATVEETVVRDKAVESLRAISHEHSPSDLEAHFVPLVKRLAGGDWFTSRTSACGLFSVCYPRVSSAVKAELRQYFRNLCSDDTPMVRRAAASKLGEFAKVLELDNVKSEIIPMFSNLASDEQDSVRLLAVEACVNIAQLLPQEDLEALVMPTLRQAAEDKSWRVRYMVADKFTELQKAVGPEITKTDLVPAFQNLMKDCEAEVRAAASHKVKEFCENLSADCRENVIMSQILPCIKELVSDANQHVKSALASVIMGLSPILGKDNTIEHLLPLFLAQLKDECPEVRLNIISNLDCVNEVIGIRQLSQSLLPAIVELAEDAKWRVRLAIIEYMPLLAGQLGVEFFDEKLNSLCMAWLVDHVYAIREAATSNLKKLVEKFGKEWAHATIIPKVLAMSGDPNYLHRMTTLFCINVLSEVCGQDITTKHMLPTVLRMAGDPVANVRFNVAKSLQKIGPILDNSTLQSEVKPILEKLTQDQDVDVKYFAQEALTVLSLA

[7] = target: B1
[8] = target: T5, PP2A regulatory subunit B56γ (NT-647-NHS fluorescent dye (Monolith NT Protein labeling kit red NHS))
T5 construct: one residue left at the N-terminus after TEV cleavage; PP2A regulatory subunit B56γ, UniProt Q13362-1; source: E. coli BL21 Gold, purified (glutathione agarose, TEV cleavage, SEC); not shown: GST, N-terminal, cleaved
T5 sequence (Q13362 whole entry): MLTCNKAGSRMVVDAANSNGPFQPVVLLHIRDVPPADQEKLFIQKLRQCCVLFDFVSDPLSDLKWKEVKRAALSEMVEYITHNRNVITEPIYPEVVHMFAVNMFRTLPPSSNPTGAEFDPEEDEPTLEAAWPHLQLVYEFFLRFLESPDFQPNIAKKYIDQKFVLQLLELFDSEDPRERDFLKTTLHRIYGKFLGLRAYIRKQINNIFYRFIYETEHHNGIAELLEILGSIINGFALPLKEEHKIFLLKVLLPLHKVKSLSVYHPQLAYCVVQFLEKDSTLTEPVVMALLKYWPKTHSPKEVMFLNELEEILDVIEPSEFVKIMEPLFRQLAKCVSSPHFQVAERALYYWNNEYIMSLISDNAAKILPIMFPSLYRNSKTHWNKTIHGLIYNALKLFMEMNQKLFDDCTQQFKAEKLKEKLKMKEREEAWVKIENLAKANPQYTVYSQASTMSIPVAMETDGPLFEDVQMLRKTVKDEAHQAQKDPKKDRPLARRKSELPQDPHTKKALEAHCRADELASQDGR

Row | Kd [1] | Kd [2] | Kd [3] | Kd [4] | Kd [5] | Kd [6] | Kd [7] | Kd [8] | Binder
1 | 40.7 µM | > 700 µM | 110 µM | – | – | – | – | – | B1
2 | – | > 500 µM | 250 µM | – | – | – | – | – | B2
3 | – | – | – | > 800 µM | 470 µM | 7.9 µM | 430 µM | > 1300 µM | B3
4 | – | – | – | – | 85 µM | 6.1 µM | 195 µM | 320 µM | B4
5 | – | – | – | > 700 µM | 110 µM | 7.5 µM | 95 µM | 195 µM | B5
